Measured values published in patent US20110009361A1.

Molecular target: IL-13 receptor (IL-4Rα/IL-13Rα1) on TF-1 cells (human) (UniProt P78552)
Assay: cell-based or functional assay

IL-13 receptor (IL-4Rα/IL-13Rα1) on TF-1 cells (human), sequence (P78552 22-427, chain 1 of 2): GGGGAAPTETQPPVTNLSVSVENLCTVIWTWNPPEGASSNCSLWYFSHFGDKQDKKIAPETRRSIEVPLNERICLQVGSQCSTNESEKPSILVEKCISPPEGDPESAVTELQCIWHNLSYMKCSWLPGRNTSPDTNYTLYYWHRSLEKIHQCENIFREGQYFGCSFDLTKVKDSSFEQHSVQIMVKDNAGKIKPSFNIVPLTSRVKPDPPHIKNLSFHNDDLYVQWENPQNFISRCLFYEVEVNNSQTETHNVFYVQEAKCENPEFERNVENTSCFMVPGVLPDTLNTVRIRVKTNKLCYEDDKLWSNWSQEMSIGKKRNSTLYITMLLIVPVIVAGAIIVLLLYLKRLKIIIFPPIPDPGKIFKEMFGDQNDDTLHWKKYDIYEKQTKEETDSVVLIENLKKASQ
IL-13 receptor (IL-4Rα/IL-13Rα1) on TF-1 cells (human), sequence (P24394 26-825, chain 2 of 2, further chain): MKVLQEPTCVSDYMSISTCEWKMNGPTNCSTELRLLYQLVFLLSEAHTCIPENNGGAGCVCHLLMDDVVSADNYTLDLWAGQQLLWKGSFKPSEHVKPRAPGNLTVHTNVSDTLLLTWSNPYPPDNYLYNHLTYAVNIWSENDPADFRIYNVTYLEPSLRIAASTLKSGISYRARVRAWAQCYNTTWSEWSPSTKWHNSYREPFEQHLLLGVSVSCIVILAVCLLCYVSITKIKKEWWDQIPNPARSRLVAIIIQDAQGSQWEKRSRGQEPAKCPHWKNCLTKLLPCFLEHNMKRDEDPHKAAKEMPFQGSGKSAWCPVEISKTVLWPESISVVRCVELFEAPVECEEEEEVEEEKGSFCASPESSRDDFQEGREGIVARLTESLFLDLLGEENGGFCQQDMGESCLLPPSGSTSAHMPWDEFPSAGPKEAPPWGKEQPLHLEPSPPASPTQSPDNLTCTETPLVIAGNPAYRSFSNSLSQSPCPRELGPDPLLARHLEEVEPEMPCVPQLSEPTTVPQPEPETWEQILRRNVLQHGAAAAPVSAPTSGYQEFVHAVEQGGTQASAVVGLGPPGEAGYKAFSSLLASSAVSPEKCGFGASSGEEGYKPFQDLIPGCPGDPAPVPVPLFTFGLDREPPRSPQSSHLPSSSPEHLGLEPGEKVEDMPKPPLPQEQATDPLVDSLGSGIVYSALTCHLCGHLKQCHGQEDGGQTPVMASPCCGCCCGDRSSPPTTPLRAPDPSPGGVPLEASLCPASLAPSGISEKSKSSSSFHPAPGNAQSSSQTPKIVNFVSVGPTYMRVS

Row | Substance | Concentration of IL-13 required for 50% TF-1 cell proliferation (ED50, ave) [ng/mL]
1 | IL-13Q111 H102A (from UniProt P35225 35-146) (ligand) | 5.31
2 | IL-13Q111 K25A (from UniProt P35225 35-146) (ligand) | 2.64
3 | IL-13Q111 K104A (from UniProt P35225 35-146) (ligand) | 46.2
4 | human IL-13 with glutamine at position 111 (IL-13Q111) (from UniProt P35225 35-146) (ligand) | 1.26

The next lines start with the values.

Row | Concentration of IL-13 required for 50% TF-1 cell proliferation (ED50, ave) [ng/mL] | Substance
5 | 1.33 | IL-13Q111 K97A (from UniProt P35225 35-146) (ligand)
6 | 22.6 | IL-13Q111 K105A (from UniProt P35225 35-146) (ligand)
7 | 3.2 | IL-13Q111 R108A (from UniProt P35225 35-146) (ligand)
8 | 1.2 | wild type human IL-13 with arginine in the 111 position (from UniProt P35225 35-146) (ligand)
